Test system: K4 kissing-loop RNA reporter
Experiment: apparent KD of K4 kissing-loop reporter; higher = weaker reporter binding
Conditions: Eterna round: R107
Experimental: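 RNA-MaP round R107: designed RNA switches with theophylline, tryptophan, arginine or FMN aptamers are transcribed on-chip within common flanks. They are titrated with a labelled K4 kissing-loop RNA reporter in RNA-MaP buffer (100 mM Tris pH 7.5, 80 mM KCl, 4 mM MgCl2), without ligand or with the indicated ligand. Median apparent KD per design.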

[1] = input ligand: theophylline 20 uM
[2] = input ligand: tryptophan 2.4 mM
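Further: bound reporter read as fluorescence of individual clusters on recovered sequencing chips by microscopy, with normalized cluster intensities fitted with a binding model.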

| Sequence | apparent KD of K4 kissing-loop reporter (input ligand: FMN 200 uM) [nM] | apparent KD of K4 kissing-loop reporter (input ligand: arginine 13.2 mM) [nM] | apparent KD of K4 kissing-loop reporter (input ligand: none) [nM] | apparent KD of K4 kissing-loop reporter [1] [nM] | apparent KD of K4 kissing-loop reporter [2] [nM] |
| --- | --- | --- | --- | --- | --- |
| UGUCAUUGGUCGGCCGCCACUAGGACCGGGUUUUGCCUAGUGAUGUUAGUAUGAACGGCCGCCACUAGGACCGGGACCGAUGACU [KL-SSTryp-B26 #DoubleAptamer] | 468 | 279 | 473 | 377 | 105 |
| UGUCAUUGGUCGGCCGCCACUUCAUAAAAGAGUGAUGUUCUAAAGACGGAUCGAAAGAUCUGUCGAAGGACCGGGACCGAUGACU [TrypBS 19 #SwitchBubble #StaticStem] | 508 | 168 | 209 | 419 | 753 |
| UGUCAUUGGUCUGAUACCAGAAGAUAAUCUGGAGUGAUGUUCCAAGUACGACAAAGUCGCUUCCCUUGGCAGCAGACCGAUGACU [TheoBS 19 #SwitchBubble 13 #StaticStem] | 1040 | 759 | 1110 | 619 | 886 |
| UGUCAUUGGUCUGAUACCAGUUAGACCGAUAGGUCAAAACUGGAGUGAUGUUCCUAAAAUAACCCUUGGCAGCAGACCGAUGACU [TheoBS 2 #SwitchBubble #StaticStem] | 1380 | 601 | 1010 | 856 | 954 |
| UGUCUUUUUUUGAUGUUUUUUGUAUAAUGGCAGGAUAUCGUAGAUGCGAGAAGGGCUUUUAUGCGUUAUGAGUGAUGUUUGUAGG [vjjbvmullin] | 329 | 260 | 297 | 332 | 225 |
| UGUGAGCUGUCGACAAAAGUCGACUAAAACUAGGAUAUGACGAAAGUCAGAAGGAGUCAAUAAUGGAGUGAUGUUCCUGCUCACU [FmnA 9 U31+A55] | 277 | 367 | 414 | 386 | 331 |
| UGUGAUGUGUAGUGUAAUGUUUUGCGGGAUACCAGAGUCUUUUUAUUCCCUUGGCAGCUUGAGUGAUGUUUGAUGCUGUUCUUGU [llmdmullin] | 519 | 351 | 479 | 439 | 326 |
| UGUGAUGUGUAGUGUUAUGUUUUGAGGGAUACCAGAGUGUUUUUAUUCCCUUGGCAGCUUGAGUGAUGUUUGAUGUUGUUGUUGU [knnumullin] | 303 | 166 | 232 | 213 | 187 |
| UGUGGAGAAUAUGAUACCAGCAGUGAGAGAGAGGAAGUAUAGUGAUGUUAUAUGAGAGAAUGCCCUUGGCAGCAUAUGUAGAAGG [SSTheophylB.F] | 133 | 154 | 107 | 93.6 | 128 |
| UGUGUUGUUUUGAUGUUUGGUGUUGCAUGGCAGGAUAUCGUAGAGGCGAGAAGGGCUUGUGAGCGGUAUGAGUGAUGUUUGUAGG [bbgbmullin] | 433 | 270 | 406 | 400 | 299 |
| UGUGUUGUUUUGAUGUUUGGUGUUUGUUGGCAGGAUAUCGUAGAGGCGAGAAGGGCUUGGGAGCGGUAUGAGUGAUGUUUGUAGG [deedwrmullin] | 373 | 186 | 364 | 302 | 245 |
| UGUGUUUACCUGACUCAGUGAUGUUGAGAAGGAGCGUGCGAAAGCACAGGUAGGUCGCUCAACCUAAAAUUCAGGUGAGCACUAA [#SwitchBubble 11 #K4Early] | 366 | 202 | 267 | 263 | 213 |
| UUACCAAGUGAUGUUUGGAAAUAUCCUAGGCAGGAUAUGCGGAAACGCAGAAGGGCCACCUUCUAGUGAAGGAAACUUCGCUAUU [Ex FMN A 3] | 288 | 199 | 272 | 246 | 263 |
| UUAGAUCAAAGAUCAGUCUUAUUGAGAGAACGAGGACCGGUACGGCCGCCACUCGAGUGAUGUUCGAGAACUCUCUUGACAAAUU [AK1 EXC Tryptophan A] | 158 | 150 | 169 | 133 | 258 |
| UUAGGCUCUCUUCUCAUUCGCUUAACCGAUACCAGAGUAAGCCCUCUCCCUUGGCAGCGGAGUGAUGUUCCGAGUGUUGAUAUUG [theeternabot_exclusion_KL_Theo_A_44] | 93.1 | 113 | 113 | 130 | 107 |
| UUAGUCUAGAGAGGAUAUCAGUGAUGUUGAUAUCAAGAUCUAAGAUAGAAUUCUAUCUUAGAUCAAUGAGAAGGCUCUAGACAUU [AK1.1 Exc FMN B] | 993 | 144 | 151 | 128 | 147 |

| Sequence | apparent KD of K4 kissing-loop reporter (input ligand: FMN 200 uM) [nM] | apparent KD of K4 kissing-loop reporter (input ligand: arginine 13.2 mM) [nM] | apparent KD of K4 kissing-loop reporter (input ligand: none) [nM] | apparent KD of K4 kissing-loop reporter [1] [nM] | apparent KD of K4 kissing-loop reporter [2] [nM] |
| --- | --- | --- | --- | --- | --- |
| UUAGUCUAGAGAGGAUAUCAGUGAUGUUGAUAUCAAGAUCUGAGAUAGAAUUCUAUCUCAGAUCAAUGAGAAGGCUCUAGACAUU [AK1.2 Exc FMN B] | 778 | 151 | 168 | 147 | 143 |
| UUCAGACUACUACUAUUUAGUAGUAUAUACUAGGAUAUCCAGAUAUGGAGAAGGAGUGAUGUUCCUUAGUAGUAGUGAAUUAAAU [KL-XFMN-A6] | 145 | 138 | 128 | 144 | 114 |
| UUCGGCCUGACGGCCGCCACUUUGGGUAGUGAUGUUACCAACAUUCACCAGAUACAGGUUACUUCAAGGACCGGGUCAGACGGUG [theeternabot_exclusion_KL_Trp_B_45] | 104 | 100 | 121 | 107 | 92.8 |
| UUCGUCGCGCAUGAUACCAGCGAGAUUUAACGCCGAAUCCUCACGCAGUGAUGUUGCACCCGCCCUUGGCAGCAUAGCCGGUUAC [theeternabot_sameState_KL_Theo_B_13] | 250 | 304 | 328 | 344 | 199 |
| UUGCGUCUCUGAGGAUAUCAGAACAGAGUGAUGUUCUGUCAACGCCCAGUGAUGUUGGAUGCGAUCUGAGAAGGCAGUGGGCGCG [Same State FMN B GF 10] | 202 | 188 | 219 | 177 | 184 |
| UUGUUAUGAUAAAAUCCUGUUUGAUAAAGACAGGAUAUAGAAAAUACUAGAAGGGUCAUUAUAUGCAGUGAUGUUGCAAAUAAGU [Exclusion FMN A Gf 22] | 41 | 60.8 | 38.4 | 55.1 | 35 |
| UUGUUUGGUUGAGAGGUUGGGCGAGAUGAUACCAGUAGAUAAGAAUACCCUUGGCAGCAUAAGAAAGAUAUAGUGAUGUUGUAUA [SSTheophA.N] | 566 | 386 | 553 | 525 | 478 |
| UUUAACGAGUGAUGUUCGAAAAGUAAUGGUGAGGAUAUCGUUUUUUCGAGAAGGCACCUCGAAGUGAUACGAAAGUAUCGCUUCG [FMN A 3] | 172 | 332 | 315 | 314 | 266 |
| UUUAACGAGUGAUGUUCGUAAAGUAAUAGUUAGGAUAUCGUUUUUUCGAGAAGGAACUUCGAAGUGAUACGAAAGUAUCGCUUCG [FMN A 8] | 136 | 192 | 192 | 205 | 152 |
| UUUAGGAGUGGUGUUGAUUAGGGAGCGGAAGGAGCGCCGAGGAAGGCAGGUAGGUCGCCGGAUUAUAGUGAUGUUAUGAAGAGGG [ExArg.M] | 875 | 723 | 792 | 912 | 654 |
| UUUAUUAAGACGGCCGCCACUGAAUCAUAGUGAUGUUAUGAUAUAAUUUUAGUGAUUUUGAUUAGCAGGACCGGGUCAAUUAUUA [#26 K4 Tryptophan B Exclusion] | 165 | 133 | 144 | 139 | 140 |
| UUUCGGUUCUGAGGAUAUUCGGACAAAUAUAGUGAUGUUGUAUAAGGAGGAGGGUGUUGGCAGUGCGGAGAAGGCAGACCAGGAU [ExFMNB.W] | 853 | 557 | 1170 | 878 | 546 |
| UUUGGAGUGGGAGGAUAUCCUAAUAUGGGUGAUGUUAGCGAUGUUGAAAGUGUAGUGAUGUUGUGCGGAGAAGGUCCAGUGUAGA [BDazzled - #14 - Exc. FMN B] | 242 | 165 | 285 | 292 | 240 |
| UUUUAAAUAUCUGAUACCAGAGCGAAUAUAUGUAGUGAUGUUAUAUACAAAAUAAAUAAGCUCCCUUGGCAGCAGUAUUAAUUUU [Astros-ExyTheB#?#ED14.66] | 1020 | 829 | 919 | 961 | 968 |
| UUUUAAAUGUCUGAUACCAGAGAAAAUAUAUGUAGUGAUGUUAUAUACAAAUUUAAUAAGCUCCCUUGGCAGCAGUAUGAAUUUU [AstrosExc-TheB#12] | 616 | 766 | 873 | 784 | 552 |
| UUUUUCCCGCAGGAUACCAGCAACCAAACGUCAUGCGAAGUGAUGUUUCGCUUACGGUAGUGCCCUUGGCAGCCUUCGGUAGGGU [thingy] | 196 | 161 | 183 | 119 | 161 |

From the supplement of paper PMC9170038
